Results taken from paper PMC8616027.

Key:
[1] = test system: HU (HU-1/HU-2, hupA + hupB co-expressed) (Escherichia coli); test: EMSA; conditions: 10 min at 23 C, then 0.8% agarose gel electrophoresis, bound [3H]HU counted in gel slices; binding buffer composition, salt and pH not in the material …; scale: HU dimers bound per plasmid at saturation
[2] = test system: HU (HU-1/HU-2, hupA + hupB co-expressed) (Escherichia coli); test: competition; conditions: 10 min at 23 C, then 0.8% agarose gel electrophoresis, bound [3H]HU counted in gel slices; binding buffer composition, salt and pH not in the material …

## negatively supercoiled pRLM4 (sigma -0.06)
[1]
  binding signal: 1000
[2]
  binding signal (fold affinity over linear DNA): 20
  binding signal (fold affinity over relaxed DNA): > 10
  binding signal (fold affinity over relaxed pRLM4): 2

## linear pRLM4
[1]
  binding signal: 1000
